{"source": "paper PMC4312765", "molecular_target": "Dpy30 C-terminal domain (human), Q9C005", "sequence (Q9C005 45-99)": "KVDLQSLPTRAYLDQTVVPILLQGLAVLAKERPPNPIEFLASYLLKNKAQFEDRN", "assay": "ITC; Dpy30FL or Dpy30C with synthetic DBM peptides; conditions not shown", "data": [{"binder": "DTLYKEQIAEDIVWDIIDELEQIALQQ (modifications not checked)", "note": "[Bre2 Dpy30-binding motif peptide]", "values": [{"measurement": "stoichiometry N", "result": 0.5}]}]}
